According to patent US8771644B2, “Imaging probes” (Sanofi, priority 2007, dated 2014):

Assays:
Format in all cases: biochemical
[1] = test system: CN(C)c1ccc(/N=N/c2ccc(C(=O)NCCCC[C@H](NC(=O)[C@H](CCC(=O)NCCNc3cccc4c(S(=O)(=O)O)cccc34)NC(=O)[C@H](CC3CCCCC3)NC(=O)N3CCOCC3)C(=O)O)cc2)cc1; experiment: in vitro activity assay (fluorescence, substrate cleavage) with Cath L; settings: other: Cath L; measurement performed at pH 7.5; pH 7.5; 37.0 °C
Description: (§1) […] The substrates were solved in DMSO and added to enzyme solution with a final concentration of 50 μM.
(§2) Fluorescence was measured with an Tecan SAFIRE II spectrometer (excitation wavelength: 336 nm; emission wavelength: 490 nm; excitation band: 10.0 nm; emission band: 10.0 nm; amplification (manual): 90).

[2] = test system: CN(C)c1ccc2c(c1)Oc1cc(N(C)C)ccc1C21OC(=O)c2cc(C(=O)NCC[C@H](NC(=O)[C@H](CC3CCCCC3)NC(=O)N3CCOCC3)C(=O)NCCNC(=O)c3ccc(-c4c5ccc(=O)cc-5oc5cc(O)ccc45)c(C(=O)O)c3)ccc21; experiment: as above; settings: other: Cath L; measurement performed at pH 5.5; pH 5.5; 37.0 °C
Description: as §1, §2

[3] = test system: CN(C)c1ccc(/N=N/c2ccc(C(=O)NCCCC[C@H](NC(=O)[C@H](CCC(=O)NCCNc3cccc4c(S(=O)(=O)O)cccc34)NC(=O)[C@H](CC3CCCCC3)NC(=O)N3CCOCC3)C(=O)O)cc2)cc1; experiment: in vitro activity assay (fluorescence, substrate cleavage) with Cath B; settings: other: Cath B; measurement performed at pH 7.5; pH 7.5; 37.0 °C
Description: as §1, §2

[4] = test system: CN(C)c1ccc2c(c1)Oc1cc(N(C)C)ccc1C21OC(=O)c2cc(C(=O)NCC[C@H](NC(=O)[C@H](CC3CCCCC3)NC(=O)N3CCOCC3)C(=O)NCCNC(=O)c3ccc(-c4c5ccc(=O)cc-5oc5cc(O)ccc45)c(C(=O)O)c3)ccc21; experiment: as above; settings: other: Cath B; measurement performed at pH 5.5; pH 5.5; 37.0 °C
Description: as §1, §2

Chain of Cath L (Homo sapiens) (chain, as listed by the source): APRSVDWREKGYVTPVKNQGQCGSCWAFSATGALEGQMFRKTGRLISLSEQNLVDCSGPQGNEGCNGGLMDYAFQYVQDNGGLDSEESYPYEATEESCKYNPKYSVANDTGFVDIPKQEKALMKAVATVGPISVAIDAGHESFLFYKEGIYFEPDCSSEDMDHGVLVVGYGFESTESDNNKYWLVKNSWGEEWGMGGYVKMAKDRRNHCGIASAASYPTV

## Cath L (Homo sapiens)
[1]
  Km: 8.3 mM
  Vmax: 0.27 µmol/min
  kcat: 1.26 s⁻¹
  kcat/Km: 152 M⁻¹ s⁻¹
[2]
  Km: 7.1 mM
  Vmax: 0.582 µmol/min
  kcat: 3.01 s⁻¹

## Cath B (Homo sapiens)
[3]
  Km: 0.12 mM
  Vmax: 0.006 µmol/min
  kcat/Km: 250 M⁻¹ s⁻¹
[4]
  Km: 0.88 mM
  Vmax: 0.156 µmol/min
  kcat: 0.25 s⁻¹
